Assay results taken from patent publication US20260116987A1 (Gilead, published 2026).

T1: Human CCR4 expressed on CHO-S cells (human, UniProt P51679 1-360)
T1 construct: whole, on cells; also called CCR4-expressing CHO-S cells
T1 sequence (looked up): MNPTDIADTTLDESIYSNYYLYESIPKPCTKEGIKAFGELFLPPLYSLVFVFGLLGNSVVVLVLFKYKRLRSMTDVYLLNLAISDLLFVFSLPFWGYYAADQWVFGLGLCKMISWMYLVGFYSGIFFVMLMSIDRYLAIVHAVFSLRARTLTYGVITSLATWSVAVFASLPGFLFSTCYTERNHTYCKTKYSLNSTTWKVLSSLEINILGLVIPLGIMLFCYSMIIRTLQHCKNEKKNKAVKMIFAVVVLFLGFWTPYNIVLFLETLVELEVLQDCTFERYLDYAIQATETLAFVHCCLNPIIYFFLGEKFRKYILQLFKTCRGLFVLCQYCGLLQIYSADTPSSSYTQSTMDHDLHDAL


What was measured:
[1] = target: T1, Human CCR4 expressed on CHO-S cells; assay: flow cytometry
[2] = target: T2, Human CCR8 (C-C chemokine receptor type 8) expressed on CHO-S cells (human, UniProt P51685 1-355); assay: cell-based or functional assay
T2 sequence (P51685 whole entry): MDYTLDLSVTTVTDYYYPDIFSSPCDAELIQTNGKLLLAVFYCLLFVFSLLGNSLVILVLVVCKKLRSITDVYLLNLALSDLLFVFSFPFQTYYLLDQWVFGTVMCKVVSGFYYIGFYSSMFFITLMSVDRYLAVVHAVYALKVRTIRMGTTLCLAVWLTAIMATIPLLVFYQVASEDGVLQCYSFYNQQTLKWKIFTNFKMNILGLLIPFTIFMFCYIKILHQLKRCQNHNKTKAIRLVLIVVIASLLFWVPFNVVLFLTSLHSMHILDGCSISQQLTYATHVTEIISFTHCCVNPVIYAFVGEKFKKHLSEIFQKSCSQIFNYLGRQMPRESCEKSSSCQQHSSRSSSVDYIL

[3] = target: T2, Human CCR8 (C-C chemokine receptor type …); assay: cell-based or functional assay; remark: listed apart in the source
[4] = target: T2, Human CCR8 (C-C chemokine receptor type …); assay: cell-based or functional assay; remark: listed apart in the source
[5] = target: T2, Human CCR8 (C-C chemokine receptor type …); assay: KinExA, on-cell, human CCR8-expressing CHO-S cells
Procedure: (§1) Samples were gently rocked for 2.5 hours at 37° C. to achieve equilibrium.
(§2) To determine the rate of association (kₒₙ), the same immobilized biotinylated goat anti-human IgG-PMMA column was used as the capture reagent for kinetic experiments.
(§3) Data analysis was performed using KinExA Pro software at Sapidyne Instruments Inc to generate Kd and kₒₙ, The rate of dissociation (koff) was calculated based on the equation below.

[6] = target: T2, Human CCR8 (C-C chemokine receptor type …); assay: flow cytometry, human CCR8-overexpressing against parental CHO-S cells
Procedure: The first category of variant (single substitution mutation in the CDR H3) included variants in which each amino acid residue of the heavy chain CDR 3 (i.e., , CDR H3) was iteratively substituted with an alanine residue.
(§4) CCR8 binding was determined using flow cytometry according to the same methods used in Example 4, Briefly, antibodies were screened for specific binding to human CCR8 by flow cytometry using human CCR8-overexpressing and parental CHO—S cell line. Antibodies specifically binding to human CCR8 were also tested for binding to CCR4 by flow cytometry.

[7] = target: T2, Human CCR8 (C-C chemokine receptor type …); assay: KinExA, on-cell, human CCR8-expressing CHO-S cells; calculated from Kd and kon
Procedure: as §1, §2, §3

[8] = target: T3, Human CCR8 on human CCR8-overexpression lipoparticles (human, UniProt P51685 1-355); assay: sequential format ELISA on human CCR8-overexpression lipoparticles; competitor 1-K16
T3 sequence (P51685 whole entry): as above

[9] = target: T3, Human CCR8 on human CCR8-overexpression …; assay: sequential format ELISA on human CCR8-overexpression lipoparticles; competitor 1-K17
[10] = target: T3, Human CCR8 on human CCR8-overexpression …; assay: sequential format ELISA on human CCR8-overexpression lipoparticles; competitor 6-B09
[11] = target: T3, Human CCR8 on human CCR8-overexpression …; assay: sequential format ELISA on human CCR8-overexpression lipoparticles; competitor 7-B16
[12] = target: T3, Human CCR8 on human CCR8-overexpression …; assay: sequential format ELISA on human CCR8-overexpression lipoparticles; competitor 19-O07
[13] = target: T2, Human CCR8 (C-C chemokine receptor type …); assay: flow cytometry epitope binning, tandem format, human CCR8-overexpressing cells; competitor 1-K16
Procedure: (§5) A subset of antibodies against human CCR8 were epitope binned using flow cytometry method in tandem format. Briefly, one set of antibodies was biotinylated. Human CCR8-overexpressing cells were incubated at 4° C., with the non-biotinylated antibodies at 10 μg/mL for 1 hour, then without washing the biotinylated antibodies were added at 10 μg/mL. After a further 1-hour incubation, cells were washed three times and then stained with streptavidin-phycoerythrin (PE-strep) secondary antibody for 30 minutes. Binding competition was determined by detecting PE by flow cytometry. The response values were normalized as the % of the maximum binding of the individual antibody.

[14] = target: T2, Human CCR8 (C-C chemokine receptor type …); assay: flow cytometry epitope binning, tandem format, human CCR8-overexpressing cells; competitor 1-K17
Procedure: as §5

[15] = target: T2, Human CCR8 (C-C chemokine receptor type …); assay: flow cytometry epitope binning, tandem format, human CCR8-overexpressing cells; competitor 6-B09
Procedure: as §5

[16] = target: T2, Human CCR8 (C-C chemokine receptor type …); assay: flow cytometry epitope binning, tandem format, human CCR8-overexpressing cells; competitor 7-B16
Procedure: as §5

[17] = target: T2, Human CCR8 (C-C chemokine receptor type …); assay: flow cytometry epitope binning, tandem format, human CCR8-overexpressing cells; competitor 19-O07
Procedure: as §5

[18] = target: T4, CCR8-NT.MBP (CCR8 N-terminus peptide aa 1-35 fused with maltose binding protein); assay: ForteBio Octet, antibody captured on AHC biosensors
[19] = target: T2, Human CCR8 (C-C chemokine receptor type …); assay: flow cytometry on CHO cells expressing CCR8, EC50 column
Procedure: as §4

[20] = target: T4, CCR8-NT.MBP (CCR8 N-terminus peptide aa …); assay: ForteBio Octet, antibody captured on AHC biosensors, CCR8-NT.MBP as analyte
[21] = target: T2, Human CCR8 (C-C chemokine receptor type …); assay: flow cytometry (PE-A), human CCR8-expressing CHO-S cells against parental CHO-S cells; antibody concentration not given
[22] = target: T1, Human CCR4 expressed on CHO-S cells; assay: flow cytometry (PE-A), human CCR4-expressing CHO-S cells against parental CHO-S cells; antibody concentration not given

| Binder | binding result [1] | IC50, antagonist activity in DiscoverX PathHunter beta-arrestin assay with 13.7 nM human CCL1 [2] [µg/mL] | EC50 of ADCC function (Promega ADCC reporter bioassay) [3] [µg/mL] | Kd [5] [nM] | kon [5] [M⁻¹ s⁻¹] | koff [7] [s⁻¹] | ELISA epitope binning signal [8] | ELISA epitope binning signal [9] | ELISA epitope binning signal [10] | ELISA epitope binning signal [11] | ELISA epitope binning signal [12] | % of the maximum binding [13] [%] | % of the maximum binding [14] [%] | % of the maximum binding [15] [%] | % of the maximum binding [16] [%] | % of the maximum binding [17] [%] | binding result [18] | binding result [19] | Octet Response (nm) [20] [nm] | other results |
| --- | --- | --- | --- | --- | --- | --- | --- | --- | --- | --- | --- | --- | --- | --- | --- | --- | --- | --- | --- | --- |
| 7-B16 chimera (human IgG1) (antibody, also called 7-B16.hG1 Chimera; Wild type 7-B16) heavy: not shown light: DIVMTQAEPSVPVTPGESISISCRSSKSLLHSNGNTYLYWFLQRPGQSPQLLIYRMSNLASGVPDRFSGSGSGTAFTLRISRVEAEDVGVYYCMQHLEYPFTFGGGTKLEIKRTVAAPSVFIFPPSDEQLKSGTASVVCLLNNFYPREAKVQWKVDNALQSGNSQESVTEQDSKDSTYSLSSTLTLSKADYEKHKVYACEVTHQGLSSPVTKSFNRGEC | no binding | 0.09 | 0.00691 | 0.22 | 6.08e+06 | 0.00134 | 0.101 | 0.771 | 1.04 | 0.655 | 0.437 | 14 | 18 | 175 | 41 | 148 |  |  |  | ADCC (Fold Induction) [4]: 23.3 fold; Flow (fold over parent) [6]: 10 fold |
| 7B16-L1.001 (CDR L1 swapped mutant of 7-B16) (antibody, V domains shown, also called CDR swapped variant L1) VH: EVQLVESGGGLVQPKGSLKLSCAASGFTFNTYAMNWVRQAPGKGLEWVARIRSKSNNYATYYADSVKDRFTISRDDSQSMLYLQMNNLKTEDTAMYYCVRGLLRYRFFDVWGAGTTVTVSS VL: DIVMTQAEPSVPVTPGESISISCRSSQSLLHSNGYNYLDWFLQRPGQSPQLLIYRMSNLASGVPDRFSGSGSGTAFTLRISRVEAEDVGVYYCMQHLEYPFTFGGGTKLEIKR |  |  |  |  |  |  |  |  |  |  |  |  |  |  |  |  | no binding (tested: 300 nM CCR8-NT.MBP) | no binding | 0.0039 |  |
| 1-K17 chimera (human IgG1) (antibody, also called 1-K17.hG1 Chimera) heavy: not shown light: DVVMTQTPLSLPVSLGDQASISCRSSQSLVHSNGNTYLYWYLQKPGQSPKLLIYKVSNRFSGVPDRFSGSGSGTDFTLKISRVEAEDLGVYFCSQSTHVPYTFGGGTKLEIKRTVAAPSVFIFPPSDEQLKSGTASVVCLLNNFYPREAKVQWKVDNALQSGNSQESVTEQDSKDSTYSLSSTLTLSKADYEKHKVYACEVTHQGLSSPVTKSFNRGEC | no binding | 0.071 | 0.00618 | 0.018 | 7.81e+06 | 0.000144 | 0.036 | 0.124 | 0.651 | 0.047 | 0.268 | 12 | 11 | 102 | 14 | 28 |  |  |  |  |
| 7B16-H3.001 (CDR H3 swapped mutant of 7-B16) (antibody, V domains shown, also called CDR swapped variant H3) VH: EVQLVESGGGLVQPKGSLKLSCAASGFTFNTYAMNWVRQAPGKGLEWVARIRSKSNNYATYYADSVKDRFTISRDDSQSMLYLQMNNLKTEDTAMYYCTRYYYYYGMDVWGAGTTVTVSS VL: DIVMTQAEPSVPVTPGESISISCRSSKSLLHSNGNTYLYWFLQRPGQSPQLLIYRMSNLASGVPDRFSGSGSGTAFTLRISRVEAEDVGVYYCMQHLEYPFTFGGGTKLEIKR |  |  |  |  |  |  |  |  |  |  |  |  |  |  |  |  | no binding (tested: 300 nM CCR8-NT.MBP) | no binding | 0.0093 |  |
| 7-B16 (mouse hybridoma antibody) (antibody, mouse IgG1, kappa) heavy: EVQLVESGGGLVQPKGSLKLSCAASGFTFNTYAMNWVRQAPGKGLEWVARIRSKSNNYATYYADSVKDRFTISRDDSQSMLYLQMNNLKTEDTAMYYCVRGLLRYRFFDVWGAGTTVTVSSAKTTPPSVYPLAPGSAAQTNSMVTLGCLVKGYFPEPVTVTWNSGSLSSGVHTFPAVLESDLYTLSSSVTVPSSPRPSETVTCNVAHPASSTKVDKKIVPRDCGCKPCICTVPEVSSVFIFPPKPKDVLTITLTPKVTCVVVDISKDDPEVQFSWFVDDVEVHTAQTQPREEQFNSTFRSVSELPIMHQDWLNGKEFKCRVNSAAFPAPIEKTISKTKGRPKAPQVYTIPPPKEQMAKDKVSLTCMITDFFPEDITVEWQWNGQPAENYKNTQPIMNTNGSYFVYSKLNVQKSNWEAGNTFTCSVLHEGLHNHHTEKSLSHSPG light: DIVMTQAEPSVPVTPGESISISCRSSKSLLHSNGNTYLYWFLQRPGQSPQLLIYRMSNLASGVPDRFSGSGSGTAFTLRISRVEAEDVGVYYCMQHLEYPFTFGGGTKLEIKRADAAPTVSIFPPSSEQLTSGGASVVCFLNNFYPKDINVKWKIDGSERQNGVLNSWTDQDSKDSTYSMSSTLTLTKDEYERHNSYTCEATHKTSTSPIVKSFNRNEC |  |  |  |  |  |  |  |  |  |  |  |  |  |  |  |  |  |  |  | binding result [21]: binds; binding result [22]: no binding |
